Measured values taken from patent US20070092489A1.
Values joined by “and” are separate entries in the source; they are usually repeats but may differ in a detail not shown here. Equal values may be shown once.

How the values were obtained:
[1] = target: adenovirus fiber knob as shown on Av3GFP adenoviral vector particles; assay: cell-based or functional assay
[2] = target: adenovirus fiber knob as shown on Cy3-labeled adenoviral vector particles; assay: depletion of Cy3-labeled adenovirus from suspension by fluorimetry; D1 tethered on Co/Cr alloy
[3] = target: adenovirus fiber knob as shown on Cy3-labeled adenoviral vector particles; assay: depletion of Cy3-labeled adenovirus from suspension by fluorimetry; D1 tethered on stainless steel
[4] = target: adenovirus fiber knob as shown on Cy3-labeled adenoviral vector particles; assay: depletion of Cy3-labeled adenovirus; D1-tethered against anti-knob Ab-tethered metal surfaces
[5] = target: adenovirus fiber knob as shown on Cy3-labeled adenoviral vector particles; assay: depletion of Cy3-labeled adenovirus from suspension by fluorimetry; D1 tethered on nitinol

| Substance | concentration required to achieve maximal GFP expression (Av3GFP transduction of SKOV-3 cells) [1] [nM] | amount of Ad bound per cm^2 of the surface [2] [Ad per cm^2] | amount of Ad bound per cm^2 of the surface [3] [Ad per cm^2] | fold greater adenovirus binding than the specific antibody (anti-knob Ab) [4] | amount of Ad bound per cm^2 of the surface [5] [Ad per cm^2] |
| --- | --- | --- | --- | --- | --- |
| D1-FGF2 fusion protein (CAR D1 ligated to basic fibroblast growth factor FGF2 by intein-mediated protein ligation) (from UniProt P78310 15-140; P09038 134-288) | 14 |  |  |  |  |
| thiol-containing form of the D1 domain of the coxsackie-adenovirus receptor (D1-Cys), covalently immobilized on a metal surface (from UniProt P78310 15-140) |  | 1.51e+10 | 1.08e+10 | 2 fold and 4 fold | 1.16e+10 |
